Assay results: patent publication US20210324028A1 (Pfizer, published 2021)

Key:
[1] = target: human PD-1 on cells of human PBMCs (human, UniProt Q15116 25-288); assay: cell-based or functional assay
[2] = target: T1, human CD122/CD132 on cells of human PBMCs (human, UniProt P14784 27-551; P31785 23-369); assay: cell-based or functional assay
T1 sequence (looked up) 1: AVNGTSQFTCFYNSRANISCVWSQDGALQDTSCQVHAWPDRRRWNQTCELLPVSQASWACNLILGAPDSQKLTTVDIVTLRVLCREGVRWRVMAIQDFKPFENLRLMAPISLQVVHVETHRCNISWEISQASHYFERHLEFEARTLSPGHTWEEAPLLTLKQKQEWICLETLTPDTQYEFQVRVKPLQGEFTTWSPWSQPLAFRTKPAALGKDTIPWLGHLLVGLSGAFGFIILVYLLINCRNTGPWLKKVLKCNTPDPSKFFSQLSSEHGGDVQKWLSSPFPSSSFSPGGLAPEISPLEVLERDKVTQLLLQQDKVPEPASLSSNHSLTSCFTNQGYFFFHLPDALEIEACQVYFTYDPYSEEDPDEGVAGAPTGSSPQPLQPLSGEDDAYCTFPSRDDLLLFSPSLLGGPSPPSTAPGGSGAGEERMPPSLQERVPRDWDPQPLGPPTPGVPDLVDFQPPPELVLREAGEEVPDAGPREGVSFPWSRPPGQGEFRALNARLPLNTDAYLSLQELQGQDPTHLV
T1 sequence (looked up) 2: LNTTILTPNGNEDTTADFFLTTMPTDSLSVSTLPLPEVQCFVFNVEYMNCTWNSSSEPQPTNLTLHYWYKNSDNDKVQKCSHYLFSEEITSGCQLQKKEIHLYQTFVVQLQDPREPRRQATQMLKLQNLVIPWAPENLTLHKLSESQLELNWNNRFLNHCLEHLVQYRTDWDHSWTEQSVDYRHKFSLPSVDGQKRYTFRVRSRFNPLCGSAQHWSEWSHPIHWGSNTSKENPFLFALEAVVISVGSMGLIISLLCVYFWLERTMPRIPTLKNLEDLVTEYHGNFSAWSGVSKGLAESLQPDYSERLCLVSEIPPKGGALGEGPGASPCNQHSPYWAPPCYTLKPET

Chain of human PD-1 on cells of human PBMCs (Q15116 25-288): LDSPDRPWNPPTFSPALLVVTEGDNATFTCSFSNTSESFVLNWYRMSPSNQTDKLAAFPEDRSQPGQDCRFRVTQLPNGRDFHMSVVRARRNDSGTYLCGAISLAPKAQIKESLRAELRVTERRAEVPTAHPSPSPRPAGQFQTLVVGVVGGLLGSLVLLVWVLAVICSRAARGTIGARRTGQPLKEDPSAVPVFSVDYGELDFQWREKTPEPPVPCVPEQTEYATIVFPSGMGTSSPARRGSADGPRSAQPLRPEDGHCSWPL

B1: xhPD-1-IL15 m1 (other)
heavy 1: not shown
heavy 2: not shown
light: DIQMTQSPSSLSASVGDRVTITCKSSQSLWDSGNQKNFLTWYQQKPGKAPKLLIYWTSYRESGVPSRFSGSGSGTDFTLTISSLQPEDFATYYCQNDYFYPLTFGGGTKVEIKRTVAAPSVFIFPPSDEQLKSGTASVVCLLNNFYPREAKVQWKVDNALQSGNSQESVTEQDSKDSTYSLSSTLTLSKADYEKHKVYACEVTHQGLSSPVTKSFNRGEC
[1]
  Fold change = EC50 (Isotype control--IL15)/EC50 (xhPD1--IL15), CD8+cm T cells: 47 fold
  Fold change = EC50 (Isotype control--IL15)/EC50 (xhPD1--IL15), NK cells: 1.99 fold
  pSTAT5 EC50 on human CD8+cm T cells (hPBMC): 78 pM
[2]
  pSTAT5 EC50 on human NK cells (hPBMC): 0.475 nM

B2: xhPD-1-IL15 m2 (other)
heavy 1: not shown
heavy 2: not shown
light: DIQMTQSPSSLSASVGDRVTITCKSSQSLWDSGNQKNFLTWYQQKPGKAPKLLIYWTSYRESGVPSRFSGSGSGTDFTLTISSLQPEDFATYYCQNDYFYPLTFGGGTKVEIKRTVAAPSVFIFPPSDEQLKSGTASVVCLLNNFYPREAKVQWKVDNALQSGNSQESVTEQDSKDSTYSLSSTLTLSKADYEKHKVYACEVTHQGLSSPVTKSFNRGEC
[1]
  Fold change = EC50 (Isotype control--IL15)/EC50 (xhPD1--IL15), CD8+cm T cells: 76.5 fold
  Fold change = EC50 (Isotype control--IL15)/EC50 (xhPD1--IL15), NK cells: 1.36 fold
  pSTAT5 EC50 on human CD8+cm T cells (hPBMC): 0.492 nM
[2]
  pSTAT5 EC50 on human NK cells (hPBMC): 8.27 nM
